The source of these data is patent US20120115739A1.

The target in assay [1] is pepIII peptide (PepIII portion of EGFRvIII), 13-mer …. The assay is described as follows: eluted supernatant of sample blocked with free pepIII in the first round of binding, rebound to pepIII-conjugated beads, flow cytometry.
The target is the same in assay [2]. The assay can be described thus: eluted supernatant of unblocked sample rebound to pepIII-conjugated beads, flow cytometry.
Assay [3] has the same target. The assay is described as follows: eluted supernatant mixed with pepIII-conjugated beads and free pepIII competitor in the second round, flow cytometry.

L8A4 anti-pepIII monoclonal antibody: the antibody level (FIG. 2, fluorescence) in assay [1] amounted to 2.21; in assay [2] it was 31.2; in assay [3], 2.57.
